± gives the uncertainty stated by the source.

B1: Gamma-crystallin C, residues 4 to 79; numbered along this chain, P07315 (parent)
chain: ITFYEDRAFQGRSYETTTDCPNLQPYFSRCNSIRVESGCWMLYERPNYQGQQYLLRRGEYPDYQQWMGLSDSIRSC

This data set covers variants of B1. In words: abundance fitness (aPCA) (normalised: wild type 0, dead -1); higher = more abundant; growth selection in yeast, the domain comes from the species named. As to conditions: Homo sapiens.
Consider Y26L, for which the abundance fitness was found to be 0.037 ± 0.067. Consider D19M, for which the abundance fitness was -0.037 ± 0.091. Next, D19T: -0.135 ± 0.12. D19V: the abundance fitness was -0.101 ± 0.089.

Consider D19Y, for which the abundance fitness is -0.187 ± 0.24. As to D19G, the abundance fitness is -0.101 ± 0.067. As to D19H, the abundance fitness is -0.074 ± 0.17. As to Q52S, the abundance fitness was -0.041 ± 0.12. As for Q52H, the abundance fitness was 0.082 ± 0.45. The figure for Q52N is -0.053 ± 0.21; for Q52I it is -0.105 ± 0.19; for R74L it is 0.023 ± 0.049. On to R74W, for which the abundance fitness turned out to be 0.119 ± 0.059. Turning to R74M, the abundance fitness is 0.007 ± 0.082.

Regarding R74T, the abundance fitness was 0.12 ± 0.082. R74G: the abundance fitness came out at 0.022 ± 0.044. As for R74V, the abundance fitness was determined as 0.108 ± 0.053. On to R74I, for which the abundance fitness was found to be 0.02 ± 0.076. P61T: the abundance fitness was -0.142 ± 0.087. Next, P61F: -0.039 ± 0.25; P61C: -0.072 ± 0.052; P61L: -0.064 ± 0.072. In the case of P61R, the abundance fitness is -0.038 ± 0.053.

Turning to P61I, the abundance fitness is -0.129 ± 0.14. Consider P61S, for which the abundance fitness was 0.004 ± 0.08. With Y48F, the abundance fitness is -0.584 ± 0.31. For the variant Y48G, the abundance fitness is -0.109 ± 0.064. As to Y48E, the abundance fitness is -0.373 ± 0.15. Turning to Y48R, the abundance fitness is -0.508 ± 0.049. For the variant S37W, the abundance fitness was -0.113 ± 0.13. The figure for S37G is -0.061 ± 0.062. For S75F, the abundance fitness is -0.979 ± 0.26. S75C: the abundance fitness stood at 0.044 ± 0.12. S75R: the abundance fitness was -0.479 ± 0.069. The figure for S75W is -0.875 ± 0.24; for W40Y it is -0.16 ± 0.28. With W40I, the abundance fitness turned out to be 0.01 ± 0.3. W40D: the abundance fitness was -0.849 ± 0.28.

For the variant W40R, the abundance fitness is -0.969 ± 0.13. Consider W40T, for which the abundance fitness was -0.43 ± 0.17. Next, W40G: -0.435 ± 0.063; W40E: -0.978 ± 0.2; N22R: 0.016 ± 0.065.

Consider P25Q, for which the abundance fitness was -0.05 ± 0.13. Take P25L: the abundance fitness is 0.021 ± 0.098. For P25C, the abundance fitness came to 0.227 ± 0.19.

In the case of P25S, the abundance fitness came to 0.047 ± 0.066. With P25N, the abundance fitness came out at 0.048 ± 0.2. For the variant I33A, the abundance fitness is 0.054 ± 0.084. As for I33K, the abundance fitness was -0.835 ± 0.25. Next, I33M: 0.191 ± 0.14. Regarding I33C, the abundance fitness is 0.074 ± 0.13. As for I33S, the abundance fitness is -0.642 ± 0.2.

Take C39Q: the abundance fitness is -0.088 ± 0.12. As to C39T, the abundance fitness is -0.012 ± 0.1.

C39N: the abundance fitness is -0.12 ± 0.26.

As to C39M, the abundance fitness was -0.027 ± 0.27.

For the variant C39I, the abundance fitness is -0.014 ± 0.27.

Consider C39S, for which the abundance fitness is 0.062 ± 0.094. As to C39L, the abundance fitness is -0.074 ± 0.092. In the case of E44T, the abundance fitness was -0.206 ± 0.14. In the case of E44A, the abundance fitness is -0.034 ± 0.085.

As to E44R, the abundance fitness was determined as 0.002 ± 0.066. In the case of E44H, the abundance fitness was -0.137 ± 0.16.

Regarding E44D, the abundance fitness was found to be 0.022 ± 0.14. On to E44G, for which the abundance fitness turned out to be 0.02 ± 0.057. The figure for N31T is -0.056 ± 0.4; for N31A it is -0.576 ± 0.42.

With L54A, the abundance fitness was -0.016 ± 0.08. In the case of L54R, the abundance fitness is -0.104 ± 0.081. L54C: the abundance fitness stood at 0.085 ± 0.14. Regarding L54H, the abundance fitness is -0.068 ± 0.22. For L54P, the abundance fitness is -0.092 ± 0.13. The figure for L54Y is -0.393 ± 0.25; for C20N it is 0.22 ± 0.26. Regarding C20E, the abundance fitness is -0.041 ± 0.11.

In the case of C20L, the abundance fitness was -0.042 ± 0.057. In the case of C20S, the abundance fitness is 0.104 ± 0.11. As for C20T, the abundance fitness was determined as 0.019 ± 0.1. Take C20G: the abundance fitness was -0.058 ± 0.07. In the case of C20Y, the abundance fitness was -0.079 ± 0.11. Regarding Q49K, the abundance fitness was -0.056 ± 0.18. Next, Q49M: -0.115 ± 0.11; Q49R: -0.07 ± 0.059; S28L: -0.082 ± 0.1. As for S28V, the abundance fitness was -0.03 ± 0.084. Consider S28G, for which the abundance fitness came out at 0.042 ± 0.12. With S28N, the abundance fitness was 0.058 ± 0.15.

S28E: the abundance fitness came to 0.093 ± 0.098. Next, S28A: -0.038 ± 0.1; R56N: 0.034 ± 0.33; R56P: -0.115 ± 0.13. With R56V, the abundance fitness turned out to be 0.039 ± 0.088. On to R56K, for which the abundance fitness is -0.018 ± 0.29. As for T17K, the abundance fitness is -0.119 ± 0.11. With T17C, the abundance fitness is 0.054 ± 0.19.

With T17E, the abundance fitness worked out at 0.046 ± 0.14. Consider T17R, for which the abundance fitness amounted to 0.034 ± 0.11. T2N: the abundance fitness was -0.002 ± 0.33.

T2C: the abundance fitness is -0.054 ± 0.35. For the variant T2W, the abundance fitness was -0.201 ± 0.12. For T2L, the abundance fitness is -0.15 ± 0.097.

Regarding T2R, the abundance fitness was -0.145 ± 0.099. The figure for T2F is 0.101 ± 0.32; for L69Q it is 0.08 ± 0.12. Turning to L69R, the abundance fitness was -0.021 ± 0.048. As to L69I, the abundance fitness is -0.23 ± 0.26. As to L69E, the abundance fitness was found to be 0.017 ± 0.075. Turning to W66L, the abundance fitness is -0.082 ± 0.074. Consider W66P, for which the abundance fitness was 0.005 ± 0.1. Turning to W66T, the abundance fitness was 0.021 ± 0.083. For the variant W66E, the abundance fitness was determined as 0.068 ± 0.098. The figure for W66N is 0.091 ± 0.15; for W66H it is -0.01 ± 0.18. Take M67S: the abundance fitness is -0.057 ± 0.11. With M67C, the abundance fitness is -0.173 ± 0.12. In the case of M67R, the abundance fitness was -0.005 ± 0.072. In the case of M67T, the abundance fitness is -0.018 ± 0.077. R7C: the abundance fitness was -0.002 ± 0.15.

As for R7G, the abundance fitness was -0.02 ± 0.064.

Regarding R7Q, the abundance fitness turned out to be 0.013 ± 0.073. Consider R7A, for which the abundance fitness was -0.031 ± 0.089. Take R7N: the abundance fitness came out at 0.044 ± 0.12.

With R7D, the abundance fitness was -0.153 ± 0.32. Next, S72H: -0.172 ± 0.17. For the variant S72T, the abundance fitness is -0.145 ± 0.088. Next, S72A: -0.136 ± 0.081; S72F: 0.119 ± 0.084. Turning to S72P, the abundance fitness is -0.025 ± 0.14. In the case of S72L, the abundance fitness was -0.052 ± 0.072. Consider S72K, for which the abundance fitness was 0.058 ± 0.13. The figure for S72Y is 0.01 ± 0.11; for I73P it is 0.071 ± 0.081; for I73D it is -0.861 ± 0.23.

Turning to I73S, the abundance fitness was -0.39 ± 0.084. Turning to G58P, the abundance fitness is -0.674 ± 0.15.

As for G58Y, the abundance fitness is 0.009 ± 0.41. G58W: the abundance fitness was -0.408 ± 0.12. For G58L, the abundance fitness is -0.659 ± 0.12. For G58V, the abundance fitness was -1 ± 0.22. As to Y60L, the abundance fitness is -0.247 ± 0.21.

On to S32A, for which the abundance fitness is -0.101 ± 0.087. In the case of S32R, the abundance fitness is -1.07 ± 0.31.

As for S32L, the abundance fitness is -0.985 ± 0.2. Turning to S32I, the abundance fitness was -0.805 ± 0.43. Next, S32F: -1.09 ± 0.38; C30Y: -0.472 ± 0.34. For the variant C30P, the abundance fitness was -0.079 ± 0.2. As to C30W, the abundance fitness is -0.58 ± 0.13. In the case of C30I, the abundance fitness is -0.1 ± 0.14. For the variant V35I, the abundance fitness is -0.916 ± 0.41. In the case of V35P, the abundance fitness is -1.03 ± 0.34. Next, M41R: -0.018 ± 0.069; M41E: 0.059 ± 0.12; M41F: 0.104 ± 0.2. Next, L55H: -1.03 ± 0.39; L55I: 0.038 ± 0.16; L55V: -0.048 ± 0.078. As for L55R, the abundance fitness was -0.794 ± 0.15. As to L55A, the abundance fitness was -0.368 ± 0.083. The figure for L55F is -0.246 ± 0.1; for P21F it is -0.161 ± 0.24; for P21A it is -0.028 ± 0.11.

For P21R, the abundance fitness was -0.131 ± 0.052. Turning to L23R, the abundance fitness is -1.01 ± 0.23. Take L23N: the abundance fitness was -0.676 ± 0.26. In the case of L23Q, the abundance fitness was -0.959 ± 0.34.

Values taken from the Human Domainome abundance scans (Beltran et al. 2025).
